Publication PMC10958042

B1: ATGL (PNPLA2, patatin-like phospholipase domain-containing protein 2), human, full length / G0S2 (G0/G1 switch protein 2), human (parent)
chain 1: MFPREKTWNISFAGCGFLGVYYVGVASCLREHAPFLVANATHIYGASAGALTATALVTGVCLGEAGAKFIEVSKEARKRFLGPLHPSFNLVKIIRSFLLKVLPADSHEHASGRLGISLTRVSDGENVIISHFNSKDELIQANVCSGFIPVYCGLIPPSLQGVRYVDGGISDNLPLYELKNTITVSPFSGESDICPQDSSTNIHELRVTNTSIQFNLRNLYRLSKALFPPEPLVLREMCKQGYRDGLRFLQRNGLLNRPNPLLALPPARPHGPEDKDQAVESAQAEDYSQLPGEDHILEHLPARLNEALLEACVEPTDLLTTLSNMLPVRLATAMMVPYTLPLESALSFTIRLLEWLPDVPEDIRWMKEQTGSICQYLVMRAKRKLGRHLPSRLPEQVELRRVQSLPSVPLSCAAYREALPGWMRNNLSLGDALAKWEECQRQLLLGLFCTNVAFPPEALRMRAPADPAPAPADPASPQHQLAGPAPLLSTPAPEARPVIGALGL
chain 2: METVQELIPLAKEMMAQKRKGKMVKLYVLGSVLALFGVVLGLMETVCSPFTAARRLRDQEAAVAELQAALERQALQKQALQEKGKQQDTVLGGRALSNRQHAS

Variants of: B1
Assay: LUMIER: Protein A-ATGL variant and firefly luciferase-partner co-expressed in HEK293T, lysates immunoprecipitated on IgG-coated plates, co-precipitated partner measured as luciferase luminescence
Settings: with G0S2 (G0/G1 switch protein 2), transient co-transfection, IgG-coated LUMITRAC plates, 2 h at 4 °C, three PBS washes, Bright-Glo luciferase reagent, triplicates per assay, two …, scale: log2 fold change of co-immunoprecipitated luminescence relative to wild-type ATGL within each experiment

| Variant | screen value (parent: 0.26, not graded) | screen value (parent: 0.56, not graded) |
| --- | --- | --- |
| chain 1 MFPREKTWNISFAGCGFLGVYYVGVASCLREHAPFLVANATHIYGASAGALTATALVTGVCLGEAGAKFIEVSKEARKRFLGPLHPSFNLVKIIRSFLLKVLPADSHEHASGRLGISLTRVSDGENVIISHFNSKDELIQANVCSGFIPVYCGLIPPSLQGVRYVDGGISDNLPLYELKNTITVSPFSGESDICPQDSSTNIHELRVTNTSIQFNLRNLYRLSKALFPPEPLVLREMCKQGYRDGLRFLQRNGLLNRPNPLLALPPARPHGPEDKDQAVESAQAEDYSQLPGEDHILEHLPARLNEALLEACVEPTDLLTTLSNMLPARLATAMMVPYTLPLESALSFTIRLLEWLPDVPEDIRWMKEQTGSICQYLVMRAKRKLGRHLPSRLPEQVELRRVQSLPSVPLSCAAYREALPGWMRNNLSLGDALAKWEECQRQLLLGLFCTNVAFPPEALRMRAPADPAPAPADPASPQHQLAGPAPLLSTPAPEARPVIGALGL [chain 1 V328A] | -2.09 | -2.9 |
| chain 1 MFPREKTWNISFAGCGFLGVYYVGVASCLREHAPFLVANATHIYGASAGALTATALVTGVCLGEAGAKFIEVSKEARKRFLGPLHPSFNLVKIIRSFLLKVLPADSHEHASGRLGISLTRVSDGENVIISHFNSKDELIQANVCSGFIPVYCGLIPPELQGVRYVDGGISDNLPLYELKNTITVSPFSGESDICPQDSSTNIHELRVTNTSIQFNLRNLYRLSKALFPPEPLVLREMCKQGYRDGLRFLQRNGLLNRPNPLLALPPARPHGPEDKDQAVESAQAEDYSQLPGEDHILEHLPARLNEALLEACVEPTDLLTTLSNMLPVRLATAMMVPYTLPLESALSFTIRLLEWLPDVPEDIRWMKEQTGSICQYLVMRAKRKLGRHLPSRLPEQVELRRVQSLPSVPLSCAAYREALPGWMRNNLSLGDALAKWEECQRQLLLGLFCTNVAFPPEALRMRAPADPAPAPADPASPQHQLAGPAPLLSTPAPEARPVIGALGL [chain 1 S158E] | -0.0501 | 0.0613 |
| chain 1 MFPREKTWNISFAGCGFLGVYYVGVASCLREHAPFLVANATHIYGASAGALTATALVTGVCLGEAGAKFIEVSKEARKRFLGPLHPSFNLVKIIRSFLLKVLPADSHEHASGRLGISLTRVSDGENVIISHFNSKDELIQANVCSGFIPVYCGLIPPALQGVRYVDGGISDNLPLYELKNTITVSPFSGESDICPQDSSTNIHELRVTNTSIQFNLRNLYRLSKALFPPEPLVLREMCKQGYRDGLRFLQRNGLLNRPNPLLALPPARPHGPEDKDQAVESAQAEDYSQLPGEDHILEHLPARLNEALLEACVEPTDLLTTLSNMLPVRLATAMMVPYTLPLESALSFTIRLLEWLPDVPEDIRWMKEQTGSICQYLVMRAKRKLGRHLPSRLPEQVELRRVQSLPSVPLSCAAYREALPGWMRNNLSLGDALAKWEECQRQLLLGLFCTNVAFPPEALRMRAPADPAPAPADPASPQHQLAGPAPLLSTPAPEARPVIGALGL [chain 1 S158A] | -0.121 | 0.343 |
| chain 1 MFPREKTWNISFAGCGFLGVYYVGVASCLREHAPFLVANATHIYGASAGALTATALVTGVCLGEAGAKFIEVSKEARKRFLGPLHPEFNLVKIIRSFLLKVLPADSHEHASGRLGISLTRVSDGENVIISHFNSKDELIQANVCSGFIPVYCGLIPPSLQGVRYVDGGISDNLPLYELKNTITVSPFSGESDICPQDSSTNIHELRVTNTSIQFNLRNLYRLSKALFPPEPLVLREMCKQGYRDGLRFLQRNGLLNRPNPLLALPPARPHGPEDKDQAVESAQAEDYSQLPGEDHILEHLPARLNEALLEACVEPTDLLTTLSNMLPVRLATAMMVPYTLPLESALSFTIRLLEWLPDVPEDIRWMKEQTGSICQYLVMRAKRKLGRHLPSRLPEQVELRRVQSLPSVPLSCAAYREALPGWMRNNLSLGDALAKWEECQRQLLLGLFCTNVAFPPEALRMRAPADPAPAPADPASPQHQLAGPAPLLSTPAPEARPVIGALGL [chain 1 S87E] | -0.559 | -1.39 |
| chain 1 MFPREKTWNISFAGCGFLGVYYVGVASCLREHAPFLVANATHIYGASAGALTATALVTGVCLGEAGAKFIEVSKEARKRFLGPLHPSFNLVKIIRSFLLKVLPADSHEHASGRLGISLTRVSDGENLIISHFNSKDELIQANVCSGFIPVYCGLIPPSLQGVRYVDGGISDNLPLYELKNTITVSPFSGESDICPQDSSTNIHELRVTNTSIQFNLRNLYRLSKALFPPEPLVLREMCKQGYRDGLRFLQRNGLLNRPNPLLALPPARPHGPEDKDQAVESAQAEDYSQLPGEDHILEHLPARLNEALLEACVEPTDLLTTLSNMLPVRLATAMMVPYTLPLESALSFTIRLLEWLPDVPEDIRWMKEQTGSICQYLVMRAKRKLGRHLPSRLPEQVELRRVQSLPSVPLSCAAYREALPGWMRNNLSLGDALAKWEECQRQLLLGLFCTNVAFPPEALRMRAPADPAPAPADPASPQHQLAGPAPLLSTPAPEARPVIGALGL [chain 1 V127L] | 0.199 | 0.376 |
| chain 1 MFPREKTWNISFAGCGFLGVYYVGVASCLREHAPFLVANATHIYGASAGALTATALVTGVCLGEAGAKFIEVSKEARKRFLGPLHPSFNLVKIIRSFLLKVLPADSHEHASGRLGISLTRVSDGENVIISHFNSKDELIQANVCSGFIPVYCGLIPPSLQGVRYVDGGISDNLPLYELKNTITVSPFSGESDICPQDSSTNIHELRVTNTSIQFNLRNLYRLSKALFPPEPLVLREMCKQGYRDGLRFLQRNGLLNRPNPLLALPPARPHGPEDKDQAVESAQAEDYSQLPGEDHILEHLPARLNEALLEACVEPTDLLTTLSNMLPVRLATAMMVPYTLPLESALSFTIRLLEWLPDVPEDIRWMKEQTGSICQYLVMRAKRKLGRHLPSRLPEQVELRRVQSLPSVPLSCAAAREALPGWMRNNLSLGDALAKWEECQRQLLLGLFCTNVAFPPEALRMRAPADPAPAPADPASPQHQLAGPAPLLSTPAPEARPVIGALGL [chain 1 Y415A] | -0.00445 | -0.27 |
| chain 1 MFPREKTWNISFAGCGFLGVYYVGVASCLREHAPFLVANAAHIYGASAGALTATALVTGVCLGEAGAKFIEVSKEARKRFLGPLHPSFNLVKIIRSFLLKVLPADSHEHASGRLGISLTRVSDGENVIISHFNSKDELIQANVCSGFIPVYCGLIPPSLQGVRYVDGGISDNLPLYELKNTITVSPFSGESDICPQDSSTNIHELRVTNTSIQFNLRNLYRLSKALFPPEPLVLREMCKQGYRDGLRFLQRNGLLNRPNPLLALPPARPHGPEDKDQAVESAQAEDYSQLPGEDHILEHLPARLNEALLEACVEPTDLLTTLSNMLPVRLATAMMVPYTLPLESALSFTIRLLEWLPDVPEDIRWMKEQTGSICQYLVMRAKRKLGRHLPSRLPEQVELRRVQSLPSVPLSCAAYREALPGWMRNNLSLGDALAKWEECQRQLLLGLFCTNVAFPPEALRMRAPADPAPAPADPASPQHQLAGPAPLLSTPAPEARPVIGALGL [chain 1 T41A] | 0.0368 | 0.0587 |
| chain 1 MFPREKTWNISFAGCGFLGVYYVGVASCLREHAPFLVANATHIYGASAGALTATALVTGVCLGEAGAKFIEVSKEARKRFLGPLHPSFNLVKIIRSFLLKVLPADKHEHASGRLGISLTRVSDGENVIISHFNSKDELIQANVCSGFIPVYCGLIPPSLQGVRYVDGGISDNLPLYELKNTITVSPFSGESDICPQDSSTNIHELRVTNTSIQFNLRNLYRLSKALFPPEPLVLREMCKQGYRDGLRFLQRNGLLNRPNPLLALPPARPHGPEDKDQAVESAQAEDYSQLPGEDHILEHLPARLNEALLEACVEPTDLLTTLSNMLPVRLATAMMVPYTLPLESALSFTIRLLEWLPDVPEDIRWMKEQTGSICQYLVMRAKRKLGRHLPSRLPEQVELRRVQSLPSVPLSCAAYREALPGWMRNNLSLGDALAKWEECQRQLLLGLFCTNVAFPPEALRMRAPADPAPAPADPASPQHQLAGPAPLLSTPAPEARPVIGALGL [chain 1 S106K] | -0.922 | -1.29 |
